Assay results taken from publication PMC10397247.
Blank lines part the entries; values can stand above or below the binder they belong to.

Legend:
4H3939-AA = biological target: T1, 4H3939-AA; assay: two-hybrid library CCmax; conditions: mean of both orientations;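 note: natural log of median RNA to DNA barcode read ratio; higher means stronger binding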
T1 chain: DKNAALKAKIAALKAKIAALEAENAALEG

4H1146-AA = biological target: T2, 4H1146-AA; assay: two-hybrid library CCmax; conditions: mean of both orientations;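 note: natural log of median RNA to DNA barcode read ratio; higher means stronger binding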
T2 chain: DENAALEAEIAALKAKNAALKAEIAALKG

4H3446-AA = biological target: T3, 4H3446-AA; assay: two-hybrid library CCmax; conditions: mean of both orientations;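 note: natural log of median RNA to DNA barcode read ratio; higher means stronger binding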
T3 chain: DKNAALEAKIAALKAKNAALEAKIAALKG

4H2742-AA = biological target: T4, 4H2742-AA; assay: two-hybrid library CCmax; conditions: mean of both orientations;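 note: natural log of median RNA to DNA barcode read ratio; higher means stronger binding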
T4 chain: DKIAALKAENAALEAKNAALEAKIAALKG

4H146-AA = biological target: T5, 4H146-AA; assay: two-hybrid library CCmax; conditions: mean of both orientations;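 note: natural log of median RNA to DNA barcode read ratio; higher means stronger binding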
T5 chain: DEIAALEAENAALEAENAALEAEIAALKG

4H391-AA = biological target: T6, 4H391-AA; assay: two-hybrid library CCmax; conditions: mean of both orientations;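 note: natural log of median RNA to DNA barcode read ratio; higher means stronger binding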
T6 chain: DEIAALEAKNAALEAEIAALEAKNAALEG

4H1348-AA = biological target: T7, 4H1348-AA; assay: two-hybrid library CCmax; conditions: mean of both orientations
T7 chain: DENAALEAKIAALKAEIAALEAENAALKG

4H2713-AA = biological target: T8, 4H2713-AA; assay: two-hybrid library CCmax; conditions: mean of both orientations
T8 chain: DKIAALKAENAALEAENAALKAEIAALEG

4H478-AA = biological target: T9, 4H478-AA; assay: two-hybrid library CCmax; conditions: mean of both orientations
T9 chain: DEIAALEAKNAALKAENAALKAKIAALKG

4H428-AA = biological target: T10, 4H428-AA; assay: two-hybrid library CCmax; conditions: mean of both orientations
T10 chain: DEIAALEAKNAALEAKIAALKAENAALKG

4H1809-AA = biological target: T11, 4H1809-AA; assay: two-hybrid library CCmax; conditions: mean of both orientations
T11 chain: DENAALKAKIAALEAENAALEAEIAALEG

4H497-AA = biological target: T12, 4H497-AA; assay: two-hybrid library CCmax; conditions: mean of both orientations
T12 chain: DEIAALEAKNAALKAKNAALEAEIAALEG

4H3709-AA = biological target: T13, 4H3709-AA; assay: two-hybrid library CCmax; conditions: mean of both orientations
T13 chain: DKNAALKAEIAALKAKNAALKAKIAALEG

4H3591-AA = biological target: T14, 4H3591-AA; assay: two-hybrid library CCmax
T14 chain: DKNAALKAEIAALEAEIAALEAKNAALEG

4H1854-AA = biological target: T15, 4H1854-AA; assay: two-hybrid library CCmax; conditions: mean of both orientations
T15 chain: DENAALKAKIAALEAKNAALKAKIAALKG

4H3029-AA = biological target: T16, 4H3029-AA; assay: two-hybrid library CCmax; conditions: mean of both orientations
T16 chain: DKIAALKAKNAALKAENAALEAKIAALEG

4H971-AA = biological target: T17, 4H971-AA; assay: two-hybrid library CCmax; conditions: mean of both orientations
T17 chain: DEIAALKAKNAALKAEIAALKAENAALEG

4H2948-AA = biological target: T18, 4H2948-AA; assay: two-hybrid library CCmax; conditions: mean of both orientations
T18 chain: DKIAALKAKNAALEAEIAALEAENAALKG

4H675-AA = biological target: T19, 4H675-AA; assay: two-hybrid library CCmax; conditions: mean of both orientations
T19 chain: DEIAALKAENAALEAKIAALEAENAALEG

4H189-AA = biological target: T20, 4H189-AA; assay: two-hybrid library CCmax; conditions: mean of both orientations
T20 chain: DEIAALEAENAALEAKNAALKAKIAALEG

4H3121-AA = biological target: T21, 4H3121-AA; assay: two-hybrid library CCmax; conditions: mean of both orientations
T21 chain: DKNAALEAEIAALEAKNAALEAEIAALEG

4H1391-AA = biological target: T22, 4H1391-AA; assay: two-hybrid library CCmax; conditions: mean of both orientations
T22 chain: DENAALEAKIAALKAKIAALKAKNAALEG

4H2283-AA = biological target: T23, 4H2283-AA; assay: two-hybrid library CCmax; conditions: mean of both orientations
T23 chain: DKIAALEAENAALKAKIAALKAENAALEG

4H656-AA = biological target: T24, 4H656-AA; assay: two-hybrid library CCmax; conditions: mean of both orientations
T24 chain: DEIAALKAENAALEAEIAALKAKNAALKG

4H2991-AA = biological target: T25, 4H2991-AA; assay: two-hybrid library CCmax; conditions: mean of both orientations
T25 chain: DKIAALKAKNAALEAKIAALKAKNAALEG

4H3920-AA = biological target: T26, 4H3920-AA; assay: two-hybrid library CCmax; conditions: mean of both orientations
T26 chain: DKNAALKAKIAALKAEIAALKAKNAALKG

4H3102-AA = biological target: T27, 4H3102-AA; assay: two-hybrid library CCmax; conditions: mean of both orientations
T27 chain: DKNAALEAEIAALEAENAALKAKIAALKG

4H3417-AA = biological target: T28, 4H3417-AA; assay: two-hybrid library CCmax; conditions: mean of both orientations
T28 chain: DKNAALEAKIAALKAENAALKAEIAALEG

4H2248-AA = biological target: T29, 4H2248-AA; assay: two-hybrid library CCmax; conditions: mean of both orientations
T29 chain: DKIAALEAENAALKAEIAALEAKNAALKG

4H3066-AA = biological target: T30, 4H3066-AA; assay: two-hybrid library CCmax; conditions: mean of both orientations
T30 chain: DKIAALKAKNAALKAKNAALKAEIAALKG

4H1109-AA = biological target: T31, 4H1109-AA; assay: two-hybrid library CCmax
T31 chain: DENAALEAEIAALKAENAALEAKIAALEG

4H3628-AA = biological target: T32, 4H3628-AA; assay: two-hybrid library CCmax; conditions: mean of both orientations
T32 chain: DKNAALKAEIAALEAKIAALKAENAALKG

4H3666-AA = biological target: T33, 4H3666-AA; assay: two-hybrid library CCmax; conditions: mean of both orientations
T33 chain: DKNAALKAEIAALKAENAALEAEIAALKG

4H3631-bA = biological target: T34, 4H3631-bA; assay: two-hybrid library CCNG1
T34 chain: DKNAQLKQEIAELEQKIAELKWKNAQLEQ

4H906-bA = biological target: T35, 4H906-bA; assay: two-hybrid library CCNG1
T35 chain: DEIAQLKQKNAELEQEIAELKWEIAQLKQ

4H3129-bA = biological target: T36, 4H3129-bA; assay: two-hybrid library CCNG1
T36 chain: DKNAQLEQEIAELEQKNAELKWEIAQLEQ

4H3172-bA = biological target: T37, 4H3172-bA; assay: two-hybrid library CCNG1
T37 chain: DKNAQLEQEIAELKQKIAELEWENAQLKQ

4H619-bA = biological target: T38, 4H619-bA; assay: two-hybrid library CCNG1
T38 chain: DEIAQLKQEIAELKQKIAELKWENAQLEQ

4H3414-bA = biological target: T39, 4H3414-bA; assay: two-hybrid library CCNG1
T39 chain: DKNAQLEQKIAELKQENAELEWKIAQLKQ

P11A = biological target: T40, P11A; assay: two-hybrid library CCNG1
T40 chain: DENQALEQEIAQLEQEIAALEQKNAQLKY

4H570-bA = biological target: T41, 4H570-bA; assay: two-hybrid library CCNG1
T41 chain: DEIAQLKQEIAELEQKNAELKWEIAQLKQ

4H850-bA = biological target: T42, 4H850-bA; assay: two-hybrid library CCNG1
T42 chain: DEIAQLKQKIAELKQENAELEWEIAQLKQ

4H3817-bA = biological target: T43, 4H3817-bA; assay: two-hybrid library CCNG1
T43 chain: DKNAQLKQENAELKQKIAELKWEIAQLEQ

4H3638-bA = biological target: T44, 4H3638-bA; assay: two-hybrid library CCNG1
T44 chain: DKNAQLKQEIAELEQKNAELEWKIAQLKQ

4H3974-bA = biological target: T45, 4H3974-bA; assay: two-hybrid library CCNG1
T45 chain: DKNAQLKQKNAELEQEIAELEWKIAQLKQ

4H584-bA = biological target: T46, 4H584-bA; assay: two-hybrid library CCNG1
T46 chain: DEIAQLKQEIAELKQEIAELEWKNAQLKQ

interaction score (4H3939-AA): -1.76 | interaction score (4H1146-AA): 1.4 | interaction score (4H3446-AA): -0.106 | interaction score (4H2742-AA): -1.33 | interaction score (4H146-AA): -1.63 | interaction score (4H391-AA): -1.46 | interaction score (4H1348-AA): -1.31 | interaction score (4H2713-AA): -1.49 | interaction score (4H478-AA): -1.55 | interaction score (4H428-AA): -1.21 | interaction score (4H1809-AA): -1.32 | interaction score (4H497-AA): -1.77 | interaction score (4H3709-AA): 2.13 | interaction score (4H3591-AA): -1.05 | interaction score (4H1854-AA): 1.5 | interaction score (4H3029-AA): -0.926 | interaction score (4H971-AA): 0.0745 | interaction score (4H2948-AA): -1.16 | interaction score (4H675-AA): -0.943 | interaction score (4H189-AA): -0.821 | interaction score (4H3121-AA): -0.8 | interaction score (4H1391-AA): -1.71 | interaction score (4H2283-AA): -0.782 | interaction score (4H656-AA): -1.33 | interaction score (4H2991-AA): -0.637 | interaction score (4H3920-AA): -1.35 | interaction score (4H3102-AA): 1.35 | interaction score (4H3417-AA): 0.592 | interaction score (4H2248-AA): -0.482 | interaction score (4H3066-AA): -0.41 | interaction score (4H1109-AA): 0.484 | interaction score (4H3628-AA): -1.06 | interaction score (4H3666-AA): 0.67
Binder: DENAALEAEIAALKAENAALEAKIAALEG [4H1109-AA]

interaction score (4H3631-bA): -0.762 | interaction score (4H906-bA): -0.839 | interaction score (4H3129-bA): -0.78 | interaction score (4H3172-bA): -1.38 | interaction score (4H619-bA): -1.59 | interaction score (4H3414-bA): 2.61 | interaction score (P11A): 0.0953 | interaction score (4H570-bA): -1.13 | interaction score (4H850-bA): 0.0228 | interaction score (4H3817-bA): -0.661 | interaction score (4H3638-bA): 0 | interaction score (4H3974-bA): -0.932 | interaction score (4H584-bA): -1.75
Binder: DKNAQLEQEIAELEQKNAELKWEIAQLEQ [4H3129-bA]
